Measurements as given in PMC11630628 (Molecular Plant, 2024).
Ends that are not written are not given here. * marks the point of attachment. 5FAM = O=C1OC2(c3ccc(O)cc3Oc3cc(O)ccc32)c2ccc(C(=O)*)cc21

Legend:
[1] = system: leaf senescence in Arabidopsis; settings: ref Gully et al., 2015; cited from earlier work
From the text: Senescence, a crucial biological event in plant development, involves the coordinated breakdown of cellular components to recycle nutrients, aiding adaptation to changing environments. It optimizes nutrient storage and reuse, particularly in leaves, the primary photosynthetic organs. Initiation of leaf senescence prompts various physiological changes, including chlorophyll (Chl) reduction and macromolecule degradation, enabling nutrient recycling that supports the growth of seeds and fruits ([Yang et al., 2014]; [Kim et al., 2018]; [Woo et al., 2019]; [Guo et al., 2021]). Efficient senescence ...

[2] = system: FERONIA (FER) / EFR/FLS2-BAK1 complex; parameters: method as in Stegmann et al., 2017; settings: ref Stegmann et al., 2017; cited from earlier work
[3] = system: ANJEA-FERONIA (ANJ–FER) receptor complex; parameters: method as in Liu et al., 2021; settings: ref Liu et al., 2021; cited from earlier work
[4] = biological target: T1, MIK2 ectodomain (MIK2^LRR, residues 45-707) fused with a 6x His-MBP tag (Arabidopsis thaliana), Q8VZG8; experiment: MST; Figure 5F, competition: 0.5 μM FAM-SCOOP10 and 15 μM MIK2^LRR mixed 10 min at room temperature in the dark, then a range of concentrations of SCOOP12, 10 min; 20% LED power, 20% MST power; the reverse set-up (SCOOP10 on MIK2-SCOOP12) is not described
T1 chain: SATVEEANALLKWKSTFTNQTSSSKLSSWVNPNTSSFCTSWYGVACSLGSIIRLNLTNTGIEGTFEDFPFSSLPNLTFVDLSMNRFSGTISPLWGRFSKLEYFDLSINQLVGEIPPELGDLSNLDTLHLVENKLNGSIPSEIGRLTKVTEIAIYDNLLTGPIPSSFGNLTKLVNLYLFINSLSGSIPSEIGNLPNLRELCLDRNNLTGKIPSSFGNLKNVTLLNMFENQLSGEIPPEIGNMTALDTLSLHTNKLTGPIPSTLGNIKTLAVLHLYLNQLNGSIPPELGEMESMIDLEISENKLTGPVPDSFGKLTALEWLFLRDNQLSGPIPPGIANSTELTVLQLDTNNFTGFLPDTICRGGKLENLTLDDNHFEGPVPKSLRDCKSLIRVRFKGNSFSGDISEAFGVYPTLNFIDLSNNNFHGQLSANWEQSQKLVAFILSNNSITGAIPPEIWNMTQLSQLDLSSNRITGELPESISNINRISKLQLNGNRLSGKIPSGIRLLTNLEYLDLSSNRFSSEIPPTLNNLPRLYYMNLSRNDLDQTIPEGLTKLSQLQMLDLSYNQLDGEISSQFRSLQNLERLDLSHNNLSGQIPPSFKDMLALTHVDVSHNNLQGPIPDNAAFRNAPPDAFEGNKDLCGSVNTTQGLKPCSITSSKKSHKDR

[5] = biological target: T2, MIK2 ectodomain (MIK2^LRR, residues 45-707) fused with a 6x His-MBP tag (Arabidopsis thaliana, UniProt Q8VZG8 45-707); experiment: MST; in presence of competitor SCOOP12
T2 chain: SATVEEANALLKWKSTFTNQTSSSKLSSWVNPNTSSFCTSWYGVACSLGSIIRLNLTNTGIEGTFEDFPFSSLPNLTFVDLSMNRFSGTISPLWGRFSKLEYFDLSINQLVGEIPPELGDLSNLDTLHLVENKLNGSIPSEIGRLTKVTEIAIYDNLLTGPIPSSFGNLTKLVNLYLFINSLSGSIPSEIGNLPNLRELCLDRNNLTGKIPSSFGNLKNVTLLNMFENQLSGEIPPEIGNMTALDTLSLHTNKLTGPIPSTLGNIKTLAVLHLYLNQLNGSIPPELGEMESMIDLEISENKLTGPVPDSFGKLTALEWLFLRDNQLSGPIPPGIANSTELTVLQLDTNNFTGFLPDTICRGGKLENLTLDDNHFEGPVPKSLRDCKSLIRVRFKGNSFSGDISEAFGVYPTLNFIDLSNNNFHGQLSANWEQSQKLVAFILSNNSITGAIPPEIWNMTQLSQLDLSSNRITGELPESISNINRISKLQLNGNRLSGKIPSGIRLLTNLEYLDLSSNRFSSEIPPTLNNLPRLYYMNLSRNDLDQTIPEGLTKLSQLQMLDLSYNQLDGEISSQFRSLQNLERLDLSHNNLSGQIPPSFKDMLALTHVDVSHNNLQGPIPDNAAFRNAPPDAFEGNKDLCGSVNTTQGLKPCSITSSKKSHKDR

[6] = biological target: T3, MIK2 ectodomain (MIK2^LRR, residues 45-707) fused with a 6x His-MBP tag (Arabidopsis thaliana, UniProt Q8VZG8 45-707); experiment: MST; Figure 5F, titrations in the absence of the competing peptide; conditions of these titrations not told apart from the others; settings: both partners purified
T3 construct: ectodomain residues 45-707, without the putative N-terminal signal peptide; Cloned into pET41 with a 6x His-MBP tag; no cleavage of the tag is told; also called His-MBP-tagged MIK2^LRR; ectodomain of MIK2; source: E. coli BL21, purified (Mag-Beads His-Tag Protein Purification Kit)
T3 sequence (looked up): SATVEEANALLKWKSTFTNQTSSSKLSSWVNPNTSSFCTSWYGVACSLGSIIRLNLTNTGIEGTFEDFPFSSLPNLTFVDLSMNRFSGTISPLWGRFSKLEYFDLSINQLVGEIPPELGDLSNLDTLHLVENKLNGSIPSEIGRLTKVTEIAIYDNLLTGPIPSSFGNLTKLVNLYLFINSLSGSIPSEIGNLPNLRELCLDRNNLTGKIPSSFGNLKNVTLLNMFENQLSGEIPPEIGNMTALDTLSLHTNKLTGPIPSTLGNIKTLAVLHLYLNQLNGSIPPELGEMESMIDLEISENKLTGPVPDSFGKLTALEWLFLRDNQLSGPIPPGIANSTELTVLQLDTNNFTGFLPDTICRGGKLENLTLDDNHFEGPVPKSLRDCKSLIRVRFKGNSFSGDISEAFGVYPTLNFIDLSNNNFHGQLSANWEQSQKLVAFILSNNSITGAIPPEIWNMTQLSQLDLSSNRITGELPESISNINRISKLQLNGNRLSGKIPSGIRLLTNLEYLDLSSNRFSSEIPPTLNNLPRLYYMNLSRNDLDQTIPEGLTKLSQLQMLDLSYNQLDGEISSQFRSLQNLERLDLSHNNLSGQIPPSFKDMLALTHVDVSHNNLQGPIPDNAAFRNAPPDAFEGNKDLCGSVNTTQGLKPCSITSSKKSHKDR

[7] = biological target: T3, MIK2 ectodomain (MIK2^LRR, residues …); experiment: MST; Monolith NT.115; 0.05 μM 5-FAM-labelled peptide, MIK2^LRR diluted from 20 μM in ddH2O, 10 min at room temperature; 20% LED power, 40% MST power; settings: both partners purified
[8] = biological target: T2, MIK2 ectodomain (MIK2^LRR, residues …); experiment: MST; in presence of competitor SCOOP10

In the case of “plant elicitor peptide PEP1 (ATKVKAKQRGKEKVSSGRPGQHN; Elicitor peptide 1; UniProt Q9LV87 70-92, looked up) [plant elicitor peptide, one of the first plant phytocytokines]”, the leaf senescence modulation [1] is listed as “function as a leaf senescence modulator in Arabidopsis”.

For “RALF23: RAPID ALKALINIZATION FACTOR (RALF) peptide (ATRRYISYGALRRNTIPCSRRGASYYNCRRGAQANPYSRGCSAITRCRRS; Protein RALF-like 23; UniProt Q9LUS7 89-138, looked up)”, the “effect on FER-mediated receptor complex assembly” value [2] is listed as “suppresses the formation of the EFR/FLS2-BAK1 complex” and the “competition with POLLEN COAT PROTEIN B-class peptides” value [3] is listed as “compete with the POLLEN COAT PROTEIN B-class peptides”.

PVRSSQSSQAGGR (modifications not checked) [SCOOP12 peptide (unlabeled, used as competitor), B3H7I1 44-78] gave a KD printed for the inhibition of the SCOOP10-MIK2 interaction by SCOOP12 [4] of 279000 nM.

5FAM-PNGDIFTGPSGSGHGGGR [SCOOP10 peptide labeled with FAM at the N-terminus (5'-FAM-SCOOP10)] gave a Kd [5] of 279000 nM, a Kd [6] of 753 nM and a Kd [7] of 13.5 ± 1.47 nM.

For 5FAM-PVRSSQSSQAGGR [SCOOP12 peptide labeled with 5-FAM at the N terminus (FAM-SCOOP12)], the Kd [8] was 1160 nM and the Kd [7] was 22 ± 3.02 nM.
